Reference: patent US20250352630A1

Biological target: Native MsrA/B on the surface of N. gonorrhoeae 1291 cells (N. gonorrhoeae strain 1291) (UniProt P14930)
Assay: whole cell ELISA, N. gonorrhoeae 1291 strains

Sequence of Native MsrA/B on the surface of N. gonorrhoeae 1291 cells (N. gonorrhoeae strain 1291) (P14930 1-519, tags or fused parts left off): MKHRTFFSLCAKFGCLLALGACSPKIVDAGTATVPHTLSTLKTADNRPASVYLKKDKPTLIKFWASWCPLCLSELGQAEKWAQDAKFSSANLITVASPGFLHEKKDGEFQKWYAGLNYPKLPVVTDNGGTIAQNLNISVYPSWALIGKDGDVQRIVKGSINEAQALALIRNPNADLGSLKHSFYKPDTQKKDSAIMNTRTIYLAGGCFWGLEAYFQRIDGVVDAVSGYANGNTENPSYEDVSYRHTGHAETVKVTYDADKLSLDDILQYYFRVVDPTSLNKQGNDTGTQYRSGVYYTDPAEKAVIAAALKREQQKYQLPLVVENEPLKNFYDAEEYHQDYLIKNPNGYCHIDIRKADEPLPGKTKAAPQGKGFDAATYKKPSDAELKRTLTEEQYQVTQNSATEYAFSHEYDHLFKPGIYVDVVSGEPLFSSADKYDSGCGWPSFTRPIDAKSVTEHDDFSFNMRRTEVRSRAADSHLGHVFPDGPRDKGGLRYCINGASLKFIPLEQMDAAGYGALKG

Substance: Pre-immune mouse sera (antibody)
- ELISA titre vs whole cells: < 200 titre
